“And” between values parts separate entries of the source, which are not always exact repeats. Equal entries are not always repeated.
Columns and labels:
[1] = molecular target: T1, human NKG2D (hNKG2D) on the cell surface (human, UniProt P26718 1-216); assay: flow cytometry, dose-response on NKG2D- and DAP10-expressing BaF/3 cells
T1 construct: Carried by BaF/3 cells co-transfected with full-length NKG2D and DAP10, or naturally by human NK, CD8+ T and gamma-delta T cells (PBMC, whole blood); also called cell-surface NKG2D; NKG2D- and DAP10-expressing BaF/3 cells
T1 chain: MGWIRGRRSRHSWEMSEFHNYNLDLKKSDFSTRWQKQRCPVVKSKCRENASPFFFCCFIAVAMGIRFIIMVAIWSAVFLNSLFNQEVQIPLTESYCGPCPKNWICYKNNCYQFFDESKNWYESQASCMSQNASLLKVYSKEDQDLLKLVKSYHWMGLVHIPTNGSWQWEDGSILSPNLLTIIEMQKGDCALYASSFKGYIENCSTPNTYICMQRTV

dog NKG2D = molecular target: T2, dog NKG2D (dog, UniProt A0A8I3PNL2 1-217); assay: not described
T2 construct: The assay format for the cross-reactivity test is not described
T2 sequence: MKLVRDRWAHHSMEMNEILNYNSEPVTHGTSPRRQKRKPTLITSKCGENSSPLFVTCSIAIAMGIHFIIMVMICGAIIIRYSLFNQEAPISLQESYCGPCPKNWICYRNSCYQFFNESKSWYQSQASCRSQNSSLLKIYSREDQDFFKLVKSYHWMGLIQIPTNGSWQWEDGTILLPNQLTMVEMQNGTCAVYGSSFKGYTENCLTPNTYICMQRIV

mouse NKG2D = molecular target: T3, mouse NKG2D (mouse, UniProt O54709 1-232, limits assumed); assay: not described
T3 construct: The assay format for the cross-reactivity test is not described
T3 sequence (looked up): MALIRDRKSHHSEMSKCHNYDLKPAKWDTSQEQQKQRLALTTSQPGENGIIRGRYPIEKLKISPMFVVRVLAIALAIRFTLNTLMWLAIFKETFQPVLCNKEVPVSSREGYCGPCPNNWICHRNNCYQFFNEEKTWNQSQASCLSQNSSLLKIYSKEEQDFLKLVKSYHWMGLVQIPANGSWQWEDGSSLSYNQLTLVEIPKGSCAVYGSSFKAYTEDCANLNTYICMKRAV

pig NKG2D = molecular target: T4, pig NKG2D (pig, UniProt Q9GLF5 1-214, limits assumed); assay: not described
T4 construct: The assay format for the cross-reactivity test is not described
T4 sequence (looked up): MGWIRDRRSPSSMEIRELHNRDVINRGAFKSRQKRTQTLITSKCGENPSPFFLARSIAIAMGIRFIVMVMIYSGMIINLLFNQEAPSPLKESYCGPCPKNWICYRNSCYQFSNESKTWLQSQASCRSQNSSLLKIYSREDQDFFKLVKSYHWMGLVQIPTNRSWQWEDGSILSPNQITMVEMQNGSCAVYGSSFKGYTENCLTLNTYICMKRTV

rat NKG2D = molecular target: T5, rat NKG2D (rat, UniProt O70215 1-215, limits assumed); assay: not described
T5 construct: The assay format for the cross-reactivity test is not described
T5 sequence (looked up): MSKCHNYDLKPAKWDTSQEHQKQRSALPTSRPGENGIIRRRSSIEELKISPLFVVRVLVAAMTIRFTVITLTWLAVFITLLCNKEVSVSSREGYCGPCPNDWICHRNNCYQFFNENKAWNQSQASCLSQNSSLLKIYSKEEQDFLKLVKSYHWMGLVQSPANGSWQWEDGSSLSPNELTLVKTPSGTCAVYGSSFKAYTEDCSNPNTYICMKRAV

[2] = molecular target: T6, cynomolgous monkey NKG2D on NK, CD8+ T and gamma-delta T cells (cynomolgous monkey (Macaca fascicularis), UniProt P61252 1-216); assay: flow cytometry on cynomolgous PBMC, NK cells gated; the legend names 16F16 purified from the original hybridoma
T6 construct: whole, on cells; Target on cynomolgous PBMC and whole blood cells; also called cynomologous NKG2D; cyno NKG2D
T6 sequence (looked up): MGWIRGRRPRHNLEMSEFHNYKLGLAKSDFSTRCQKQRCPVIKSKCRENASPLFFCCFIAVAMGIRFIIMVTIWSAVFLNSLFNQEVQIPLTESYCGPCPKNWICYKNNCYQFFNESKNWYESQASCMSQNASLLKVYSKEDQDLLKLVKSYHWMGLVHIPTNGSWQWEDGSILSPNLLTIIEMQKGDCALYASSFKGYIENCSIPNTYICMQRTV
Experimental: (§1) Flow cytometry assay—man and monkey PBMC. Perifieral blood mononuclear cells (PMBCs) were isolated from humans, or from Cynomologous or Rhesus monkey. All animal work were performed according to Danish National Research Council guidelines.

[3] = molecular target: T1, human NKG2D (hNKG2D) on the cell surface; assay: flow cytometry, dose-response on NKG2D- and DAP10-expressing BaF/3 cells, y axis % of max binding
[4] = molecular target: T7, recombinant NKG2D-Fc protein (R&D Systems), immobilized on a Biacore CM5 chip (human, UniProt P26718 78-216); assay: SPR (Biacore), NKG2D-Fc immobilized on CM5 chip at 1200 RU, antibody in solution, Langmuir fit
T7 construct: also called NKG2D-hFc; hFc-NKG2D; not shown: Fc portion of the purchased fusion protein
T7 sequence: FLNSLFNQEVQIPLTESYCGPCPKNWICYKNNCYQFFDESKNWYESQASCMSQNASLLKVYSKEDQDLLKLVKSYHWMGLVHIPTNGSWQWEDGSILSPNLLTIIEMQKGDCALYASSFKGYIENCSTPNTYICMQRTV
Experimental: Protein immobilisation. […] Recombinant NKG2D-Fc proteins were immobilized covalently to carboxyl groups in the dextran layer on a Sensor Chip CM5 (Biacore GE Healthcare; BR-1000-14). The sensor chip surface was activated with EDC/NHS (N-ethyl-N′-(3-dimethylaminopropyl)carbodiimidehydrochloride and N-hydroxysuccinimide (Biacore GE Healthcare; BR-1000-50)). […] Deactivation of the remaining activated groups was performed using 100 mM ethanolamine pH 8 (Biacore GE Healthcare; BR-1000-50).
[…] The resulting sensorgrams were analysed by global fitting using the Langmuir model. The dissociation constant (KD) was calculated as KD=kd/ka.

[5] = molecular target: T8, rhesus monkey NKG2D on NK and CD8+ T cells (rhesus monkey (Macaca mulatta), UniProt Q9MZJ7 1-216); assay: flow cytometry on rhesus PBMC, NK cells gated; the legend names 16F16 purified from the original hybridoma
T8 construct: whole, on cells; Target on rhesus PBMC; also called rhesus NKG2D
T8 sequence (looked up): T6 sequence (looked up)
Experimental: as §1

[6] = molecular target: T1, human NKG2D (hNKG2D) on the cell surface; assay: flow cytometry, NKG2D/DAP10 BaF/3 cells pre-incubated with antibody, then 1 µg MICA-mFc (competitor)
Experimental: Flow cytometry assays—MICA blockade. […] The cells were then analysed on a B&D FACSArray flow cytometer. The degree of reduction of MICA binding by preincubation was analysed as MFI (mean fluorescence intensity) of binding with pre-incubation in % of binding of MICA without preincubation.

B1: 16F16, fully human anti-hNKG2D monoclonal antibody, recombinantly expressed as IgG4 isotype (antibody, V domains shown)
VH: EVQLVESGGGLVKPGGSLRLSCAASGFTFSSYSMNWVRQAPGKGLEWVSSITSSSSYIYYADSVKGRFTISRDNAKNSLYLQMNSLRAEDTAVYYCARDRRYFDWFPLDYRGQGTLVTVSS
VL: DIQMTQSPSSLSASVGDRVTITCRASQGISSWLAWYQQKPEKAPKSLIYAASSLQSGVPSRFSGSGSGTDFTLTISSLQPEDFATYYCQQYNGYPYTFGQGTKLEIKR
notes: also called 16F16 IgG4; 16F16 (IgG4)
[1]
  EC50: 0.051 µg/mL and ~0.34 nM
Dog NKG2D
  binding result: no binding
Mouse NKG2D
  binding result: no binding
Pig NKG2D
  binding result: no binding
Rat NKG2D
  binding result: no binding
[2]
  binding result: binds
[3]
  EC50 (read off the curve): ~0.03 nM
[4]
  Kd: 0.178 nM
[5]
  binding result: binds
[6]
  IC50: 0.017 nM
